From patent EP4669671A1 (dated 2025)

Legend:
[1] = target: T1, monkey (Macaca fascicularis) IL2RA expressed on CHO-S cells (CHO-S-fasIL2RA cells) (monkey (Macaca fascicularis), UniProt Q5MNY4 22-272); test: flow cytometry on CHO-S-fasIL2RA cells
T1 construct: also called monkey IL2RA
T1 chain: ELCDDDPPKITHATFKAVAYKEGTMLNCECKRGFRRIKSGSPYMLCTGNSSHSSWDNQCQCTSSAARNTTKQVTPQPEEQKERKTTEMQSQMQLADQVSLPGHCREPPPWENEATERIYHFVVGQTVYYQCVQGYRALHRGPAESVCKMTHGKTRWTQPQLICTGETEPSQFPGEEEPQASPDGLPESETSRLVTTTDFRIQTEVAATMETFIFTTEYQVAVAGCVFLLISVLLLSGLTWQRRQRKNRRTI

[2] = target: T2, His-tagged human IL2RA protein (ACROBiosystems Inc., Cat#: ILA-H52H9) (human, UniProt P01589 22-213, limits assumed); test: SPR (Biacore 8K), antibody captured on Protein A chip, His-tagged IL2RA as analyte
T2 construct: Bought protein; also called hIL2RA-his; not shown: His tag
T2 sequence: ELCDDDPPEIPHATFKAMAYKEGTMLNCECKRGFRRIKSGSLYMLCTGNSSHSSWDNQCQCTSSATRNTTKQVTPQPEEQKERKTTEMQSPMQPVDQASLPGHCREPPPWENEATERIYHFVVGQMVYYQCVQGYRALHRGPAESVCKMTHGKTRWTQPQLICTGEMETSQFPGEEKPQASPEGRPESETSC

[3] = target: T3, human IL2RA expressed on CHO-S cells (CHO-S-hIL2RA cells) (human, UniProt P01589 22-272); test: flow cytometry on CHO-S-hIL2RA cells
T3 sequence: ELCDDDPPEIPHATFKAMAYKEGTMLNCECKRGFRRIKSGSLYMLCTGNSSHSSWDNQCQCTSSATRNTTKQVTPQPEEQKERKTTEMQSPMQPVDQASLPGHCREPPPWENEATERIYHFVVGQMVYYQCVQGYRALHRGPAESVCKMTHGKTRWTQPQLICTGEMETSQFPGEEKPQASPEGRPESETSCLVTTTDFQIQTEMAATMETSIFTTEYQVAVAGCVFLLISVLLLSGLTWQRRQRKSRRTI

Measured: binding result

B1: anti-IL2RA antibody 11D2 (antibody, V domains shown)
VH: QVQLVQSGGGVVQPGRSLRLSCAASGFTFTNYAIHWVRQAPGKGLEWVAVIWSDGDNKYYADSVKGRFTISRDNSKNTLYLQMNSLRAEDTAVYYCARTPWYCTSTNCYTGYYYYGMDVWGQGTTVTVSS
VL: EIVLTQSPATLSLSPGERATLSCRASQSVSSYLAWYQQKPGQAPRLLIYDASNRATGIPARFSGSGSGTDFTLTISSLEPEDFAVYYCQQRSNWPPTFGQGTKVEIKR
binds: all assays above

B2: anti-IL2RA antibody 13F9 (antibody, V domains shown)
VH: QVQLVQSGAEVKRPGASVKVSCKASGYTFTTYAIHWVRQAPGQRLEWMGWINADNGYTKYSQNFQGRVTITRDTSASTAYMDLSTLRSEDTALYYCARTPRYCTSTSCSTGYYYYGMDVWGQGTTVTVSS
VL: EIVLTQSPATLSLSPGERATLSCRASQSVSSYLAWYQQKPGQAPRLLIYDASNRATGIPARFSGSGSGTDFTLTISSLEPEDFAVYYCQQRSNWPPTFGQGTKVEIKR
binds: all assays above

B3: anti-IL2RA antibody 5D9 (antibody, V domains shown)
VH: EVQLVESGGGLVQPGGSLRLSCAASGFTVSSNYMSWVRQTPGKGLELVSFIYSGGITSYADSVRGRFTISRDNSKNTLYLQMNSLRAEDTAVYYCARDDYSNYFDYWGQGTLVTVSS
VL: DIQMTQSPSSVSASVGDRVTITCRASQGISNWLAWYQQKPGKAPKLLIFAASSLQSGVPSRFSGSGSGTDFTLTISSLQPEDFATYYCQQAKSFPITFGQGTRLEIK
notes: Variable regions were cloned into a vector with the human IgG constant region; also called 5D9-IgG1
binds: all assays above

B4: anti-IL2RA antibody 11C3 (antibody, V domains shown)
VH: QVQLVQSGAEVKKPGASVKVSCKASGYTFNSYYIHWVRQAPGQGLEWLGIINPTGGRTIYAQKFQGRVTMTRDTSTTTVDMELSSLRSEDTAVYYCARVPGYCKDTSCQDFYYYYGMDVWGQGSTVTVSS
VL: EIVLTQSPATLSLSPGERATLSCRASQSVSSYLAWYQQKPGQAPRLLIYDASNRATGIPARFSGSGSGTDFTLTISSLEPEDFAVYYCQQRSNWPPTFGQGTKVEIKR
binds: all assays above

B5: anti-IL2RA antibody 7B5 (antibody, V domains shown)
VH: EVQLQQWGAGLLKPSETLSLTCAVYGGSFSGYYWNWIRQPPGKGLEWIGESDHSGSTHFNPSLKSRVTISLDTSKNQFSLKLNSVTAADTAVYFCARAPDYGDFDHWGQGILVTVSS
VL: DIQMTQSPDSLAVSLGERATINCRSSQSVLHSSTNKRYLAWYQQKPRQPPKLLIYWTSTRESGVPDRFSGSGSGTDFTLTISSLQAEDVAVYFCQQYYSTPYTFGQGTKLEIK
binds: all assays above

B6: anti-IL2RA antibody 14C2 (antibody, V domains shown)
VH: QVQLVQSGGGVVQPGRSLRLSCAASGFTFSTYGMHWVRQAPGKGLEWVAVISYDGSDKIYADSVKGRFTISRDNSKNTLFLQMNSLRAEDTAVYYCATGPMENYYYYNMDVWGLGTTVTVSS
VL: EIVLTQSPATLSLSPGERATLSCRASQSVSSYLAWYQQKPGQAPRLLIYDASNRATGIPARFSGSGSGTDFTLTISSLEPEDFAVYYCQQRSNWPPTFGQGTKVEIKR
binds: all assays above

B7: anti-IL2RA antibody 11C12 (antibody, V domains shown)
VH: QVQLVQSGGGLVQPGGSLRLSCSASGLTFSSYGMHWVRQAPGKGLDYVSGITNNGGRTEYADSVKGRFTISRDNSKNTLYLQMSSLRTEDTAVYYCVKEDWNGQYYYYAMDVWGQGTTVTVSS
VL: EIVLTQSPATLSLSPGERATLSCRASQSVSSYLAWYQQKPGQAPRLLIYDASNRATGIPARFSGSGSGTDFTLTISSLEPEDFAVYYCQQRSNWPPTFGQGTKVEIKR
binds: all assays above
